Assay results taken from US20030073628A1.
Positions of bridges follow the written chain, without caps; N, C: chain ends. No end group written: not given here.

Target: guanylate cyclase receptor (on human T84 colon carcinoma cells) (human)
Assay: cell-based or functional assay

Binder	cGMP Level (pmol/well), T84 cells, 1 micromolar peptide for 30 minutes
NEECELCVNVACTGCL (disulfide 4-12, 7-15) [[Glu^2, Glu3]-UG (SP302)]	225 pmol/well
NDDCELCVNVACTGCL (disulfide 4-12, 7-15) [human uroguanylin, bicyclo [4,12; 7,15] (SP301)]	205 pmol/well
NEDCELCVNVACTGCL (disulfide 4-12, 7-15) [[Glu^2]-UG (SP303)]	195 pmol/well

The next lines start with the values.

cGMP Level (pmol/well), T84 cells, 1 micromolar peptide for 30 minutes	Binder
315 pmol/well	NDECELCVNVACTGCL (disulfide 4-12, 7-15) [[Glu^3]-UG (SP304)]
275 pmol/well	ECELCVNVACTGCL (disulfide 2-10, 5-13) [SP316]
